Source: patent publication US20170267738A1 (published 2017)

T1: MAGEA4 (MAG-003 A7, alanine at position 7) peptide on HLA-A*02:01 (human)
T1 peptide: KVLEHVARV

T2: RABGAP1L (peptide RABGAP1L-001) peptide on HLA-A*02:01 (human)
T2 peptide: FLLETVVRV

T3: MAGEA4 (MAG-003 A9, alanine at position 9; same residues as SEQ ID NO: 3) peptide on HLA-A*02:01 (human)
T3 peptide: KVLEHVVRA

T4: AXIN1 (peptide AXIN1-001) peptide on HLA-A*02:01 (human)
T4 peptide: ILDEHVQRV

T5: HERC4 (peptide HERC4-001) peptide on HLA-A*02:01 (human)
T5 peptide: KVLEILHRV

T6: MAGEA4 (MAG-003 A6, alanine at position 6) peptide on HLA-A*02:01 (human)
T6 peptide: KVLEHAVRV

T7: ANO5 (peptide ANO5-001) peptide on HLA-A*02:01 (human)
T7 peptide: IVMEHVVFL

T8: CNOT1 (peptide CNOT1-003) peptide on HLA-A*02:01 (human)
T8 peptide: KVLGIVVGV

T9: TPX2 (peptide TPX2-001) peptide on HLA-A*02:01 (human)
T9 peptide: KILEDVVGV

T10: SYNE3 (peptide SYNE3-001) peptide on HLA-A*02:01 (human)
T10 peptide: KLLDLQVRV

T11: HEATR5A (peptide HEATR5A-001) peptide on HLA-A*02:01 (human)
T11 peptide: KVLETLVTV

T12: PSME2 (peptide PSME2-001) peptide on HLA-A*02:01 (human)
T12 peptide: KVLERVNAV

T13: MIA3 (peptide MIA3-001) peptide on HLA-A*02:01 (human)
T13 peptide: KVLDKVFRA

T14: MAGEA4 (peptide MAG-003) peptide on HLA-A*02:01 (human)
T14 peptide: KVLEHVVRV

T15: MAGEA4 (MAG-003 A2, alanine at position 2; same residues as SEQ ID NO: 9) peptide on HLA-A*02:01 (human)
T15 peptide: KALEHVVRV

B1: R10P2G12 (TCR, V domains shown)
Valpha: AQKVTQAQTEISVVEKEDVTLDCVYETRDTTYYLFWYKQPPSGELVFLIRRNSFDEQNEISGRYSWNFQKSTSSFNFTITASQVVDSAVYFCALSEGNSGNTPLVFGKGTRLSVIA
Vbeta: DVKVTQSSRYLVKRTGEKVFLECVQDMDHENMFWYRQDPGLGLRLIYFSYDVKMKEKGDIPEGYSVSREKKERFSLILESASTNQTSMYLCASSLSSGSHQETQYFGPGTRLLVL
B2: R20P1H7 (TCR, V domains shown)
Valpha: EDQVTQSPEALRLQEGESSSLNCSYTVSGLRGLFWYRQDPGKGPEFLFTLYSAGEEKEKERLKATLTKKESFLHITAPKPEDSATYLCAVQGENSGYSTLTFGKGTMLLVSP
Vbeta: EAQVTQNPRYLITVTGKKLTVTCSQNMNHEYMSWYRQDPGLGLRQIYYSMNVEVTDKGDVPEGYKVSRKEKRNFPLILESPSPNQTSLYFCASSLGPGLAAYNEQFFGPGTRLTVL

Tests used:
[1] = target: T1, MAGEA4 (MAG-003 A7, alanine at position …); experiment: cytokine release
[2] = target: T2, RABGAP1L (peptide RABGAP1L-001) peptide …; experiment: cytokine release
[3] = target: T3, MAGEA4 (MAG-003 A9, alanine at position …); experiment: cytokine release
[4] = target: T4, AXIN1 (peptide AXIN1-001) peptide on …; experiment: cytokine release
[5] = target: T5, HERC4 (peptide HERC4-001) peptide on …; experiment: cytokine release
[6] = target: T6, MAGEA4 (MAG-003 A6, alanine at position …); experiment: cytokine release
[7] = target: T7, ANO5 (peptide ANO5-001) peptide on …; experiment: cytokine release
[8] = target: T8, CNOT1 (peptide CNOT1-003) peptide on …; experiment: cytokine release
[9] = target: T9, TPX2 (peptide TPX2-001) peptide on …; experiment: cytokine release
[10] = target: T10, SYNE3 (peptide SYNE3-001) peptide on …; experiment: cytokine release
[11] = target: T11, HEATR5A (peptide HEATR5A-001) peptide …; experiment: cytokine release
[12] = target: T12, PSME2 (peptide PSME2-001) peptide on …; experiment: cytokine release
[13] = target: T13, MIA3 (peptide MIA3-001) peptide on …; experiment: cytokine release
[14] = target: T14, MAGEA4 (peptide MAG-003) peptide on …; experiment: multimer staining
[15] = target: T15, MAGEA4 (MAG-003 A2, alanine at position …); experiment: cytokine release

| Binder | binding result [1] | binding result [2] | binding result [3] | binding result [4] | binding result [5] | binding result [6] | binding result [7] | binding result [8] | binding result [9] | binding result [10] | binding result [11] | binding result [12] | binding result [13] | binding result [14] | binding result [15] |
| --- | --- | --- | --- | --- | --- | --- | --- | --- | --- | --- | --- | --- | --- | --- | --- |
| B1 | recognises | no recognition | recognises | no recognition | no recognition | recognises | no recognition | no recognition | no recognition | no recognition | no recognition | no recognition | no recognition | recognises | – |
| B2 | – | no recognition | recognises | no recognition | no recognition | recognises | no recognition | no recognition | no recognition | no recognition | no recognition | no recognition | no recognition | recognises | recognises |
